Data on 6 substances can be found in PMC5715124.

This assay addresses mCherry-LacR-CSB-ATPase. As to the kind of experiment: immunofluorescence co-localisation at the lac operator array (mCherry-LacR tethering) in U2OS-265 cells. Particulars: 250 Myc-expressing cells scored per experiment; three independent experiments; parent: est. 28; read off a plot.
Regarding Myc-CSB-N S10A, the response was 21 % of cells.

Consider Myc-CSB-N S10A; S158A, for which the response was 17 % of cells. For Myc-CSB-N S10D, the response was 32 % of cells. Take Myc-CSB-N S10D; S158D: the response was 30 % of cells. As for Myc-CSB-N S158A, the figure is 18 % of cells; as for Myc-CSB-N S158D, 28 % of cells.
